According to the supplement of paper PMC9112550, “Optimization of the antimicrobial peptide Bac7 by deep mutational scanning” (BMC Biology, 2022):

System: Escherichia coli TOP10
Assay: shrunken log2 fold change of peptide-encoding DNA abundance (4.5 h post-induction vs induction); higher = less antimicrobial activity (less host growth inhibition)
Details: time post-induction: 4.5 h; library: site-saturation at positions 5, 18, 19, 20
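Further: peptides expressed intracellularly from a pBAD plasmid library in pooled LB shake-flask culture, induced with 0.3% L-arabinose, DNA abundance read by NGS, three biological replicates, DESeq2 with apeglm shrinkage.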

| Sequence | shrunken log2 fold change |
| --- | --- |
| RRIRIRPPRLPRPRPRPHARPRP | 3.76 |
| RRIRIRPPRLPRPRPRPHDCPRP | -0.123 |
| RRIRIRPPRLPRPRPRPHDPPRP | -0.296 |
| RRIRIRPPRLPRPRPRPHEYPRP | 0.0332 |
| RRIRIRPPRLPRPRPRPHFAPRP | -0.135 |
| RRIRIRPPRLPRPRPRPHFRPRP | -0.555 |
| RRIRIRPPRLPRPRPRPHGAPRP | -0.0865 |
| RRIRIRPPRLPRPRPRPHGFPRP | -0.383 |
| RRIRIRPPRLPRPRPRPHGPPRP | 0.0659 |
| RRIRIRPPRLPRPRPRPHGYPRP | -0.714 |
| RRIRIRPPRLPRPRPRPHHEPRP | -0.0701 |
| RRIRIRPPRLPRPRPRPHHGPRP | -0.0784 |
| RRIRIRPPRLPRPRPRPHHIPRP | -0.641 |
| RRIRIRPPRLPRPRPRPHIPPRP | -0.482 |
| RRIRIRPPRLPRPRPRPHKCPRP | -0.639 |
| RRIRIRPPRLPRPRPRPHLNPRP | -0.852 |
| RRIRIRPPRLPRPRPRPHNFPRP | -0.0684 |
| RRIRIRPPRLPRPRPRPHNHPRP | -0.93 |
| RRIRIRPPRLPRPRPRPHNKPRP | -0.976 |
| RRIRIRPPRLPRPRPRPHPYPRP | -0.0313 |
| RRIRIRPPRLPRPRPRPHSYPRP | -0.244 |
| RRIRIRPPRLPRPRPRPHTYPRP | -0.715 |
| RRIRIRPPRLPRPRPRPHVGPRP | -0.0138 |
| RRIRIRPPRLPRPRPRPHVNPRP | 2.48 |
| RRIRIRPPRLPRPRPRPHWCPRP | 0.164 |

| Sequence | shrunken log2 fold change |
| --- | --- |
| RRIRIRPPRLPRPRPRPIAYPRP | -0.32 |
| RRIRIRPPRLPRPRPRPIFEPRP | -0.0533 |
| RRIRIRPPRLPRPRPRPIGPPRP | 0.0815 |
| RRIRIRPPRLPRPRPRPIGSPRP | -0.0175 |
| RRIRIRPPRLPRPRPRPIHPPRP | -0.208 |
| RRIRIRPPRLPRPRPRPIIDPRP | -0.372 |
| RRIRIRPPRLPRPRPRPIITPRP | -0.625 |
| RRIRIRPPRLPRPRPRPIKFPRP | -0.933 |
| RRIRIRPPRLPRPRPRPIKYPRP | -2.06 |
| RRIRIRPPRLPRPRPRPILNPRP | -0.73 |
| RRIRIRPPRLPRPRPRPINPPRP | -0.362 |
| RRIRIRPPRLPRPRPRPIRAPRP | -0.634 |
| RRIRIRPPRLPRPRPRPIRVPRP | -0.0611 |
| RRIRIRPPRLPRPRPRPISDPRP | -0.0354 |
| RRIRIRPPRLPRPRPRPIYMPRP | 0.00602 |
| RRIRIRPPRLPRPRPRPKAHPRP | -0.242 |
| RRIRIRPPRLPRPRPRPKCFPRP | -0.852 |
| RRIRIRPPRLPRPRPRPKCSPRP | 0.0422 |
| RRIRIRPPRLPRPRPRPKDAPRP | 0.176 |
| RRIRIRPPRLPRPRPRPKDEPRP | -0.00382 |
| RRIRIRPPRLPRPRPRPKDNPRP | -0.606 |
| RRIRIRPPRLPRPRPRPKESPRP | -0.258 |
| RRIRIRPPRLPRPRPRPKFIPRP | -0.375 |
| RRIRIRPPRLPRPRPRPKFKPRP | -0.0251 |
| RRIRIRPPRLPRPRPRPKFYPRP | -0.713 |

| Sequence | shrunken log2 fold change |
| --- | --- |
| RRIRIRPPRLPRPRPRPKHEPRP | 0.0924 |
| RRIRIRPPRLPRPRPRPKHRPRP | -0.103 |
| RRIRIRPPRLPRPRPRPKIAPRP | 0.00729 |
| RRIRIRPPRLPRPRPRPKIDPRP | -0.573 |
| RRIRIRPPRLPRPRPRPKKIPRP | -0.526 |
| RRIRIRPPRLPRPRPRPKLDPRP | -0.106 |
| RRIRIRPPRLPRPRPRPKLMPRP | -0.171 |
| RRIRIRPPRLPRPRPRPKLSPRP | 0.144 |
| RRIRIRPPRLPRPRPRPKMNPRP | -0.954 |
| RRIRIRPPRLPRPRPRPKQCPRP | -0.178 |
| RRIRIRPPRLPRPRPRPKQWPRP | -0.0255 |
| RRIRIRPPRLPRPRPRPKRHPRP | -0.0187 |
| RRIRIRPPRLPRPRPRPKSLPRP | 0.0615 |
| RRIRIRPPRLPRPRPRPKSYPRP | -0.605 |
| RRIRIRPPRLPRPRPRPKTTPRP | -0.301 |
| RRIRIRPPRLPRPRPRPKWHPRP | -0.27 |
| RRIRIRPPRLPRPRPRPKWNPRP | -0.454 |
| RRIRIRPPRLPRPRPRPKYCPRP | 0.00104 |
| RRIRIRPPRLPRPRPRPKYTPRP | -0.686 |
| RRIRIRPPRLPRPRPRPLANPRP | -0.145 |
| RRIRIRPPRLPRPRPRPLAPPRP | 0.157 |
| RRIRIRPPRLPRPRPRPLCHPRP | -0.626 |
| RRIRIRPPRLPRPRPRPLHIPRP | -1.21 |
| RRIRIRPPRLPRPRPRPLHNPRP | -0.563 |
| RRIRIRPPRLPRPRPRPLITPRP | -0.71 |
